In US20260176377A1 (Hoffmann-La Roche, published 2026):

B1: IL-7Rα_8 VHH (VHH)
VHH: QVQLVESGGGLVQPGGSLRLSCAASGFTISSWSMKWVRQAPGKGPEWVSYISPGGGSLDYLDSVKGRFTISRDNAKNTVYLQMSNLKSEDTALYWCATGTGPTRGQGTQVTVSS
notes: soluble VHH, detected with anti-His antibody
B2: IL-7Rα_9 VHH (VHH)
VHH: QVQLVESGGGLVQPGGSLRLSCAASGFTISTWSMKWVRQAPGKGPEWVSYISPGGTSLDYQDSVKGRFTISRDNAKNTVYLQMNNLKSEDTALYWCATGTGETRGQGTQVTVSS
notes: as for B1
B3: IL-7Rα_11 VHH (VHH)
VHH: QVQLVESGGGLVQPGGSLRLSCEASGFTISSWSMKWVRQAPGKGPEWVSYISPGGGSLDYHHSVKGRFTISRDNARNTVYLQMSNLQSEDTALYWCATGTGETRGQGTQVTVSS
notes: as for B1
B4: IL-7Rα_15 VHH (VHH)
VHH: QVQLVESGGGLVQPGGSLRLSCAASGFTISSWSMKWVRQAPGKGPEWVSYISPGGGSLDYHHSVKGRFTISRDNARNTVYLQMSNLQSEDTALYWCATGTGETRGQGTQVTVSS
notes: as for B1
B5: IL-7Rα_12 VHH (VHH)
VHH: QVQLVESGGGLVQPGGSLRLSCAASGFTISSRSMKWVRQAPGKGPEWVSYISPGGGTVDYQDSVKGRFTISRDNAKNTVYLQMSNLKSEDTALYWCATGTGPTRGRGTQVTVSS
notes: as for B1
B6: IL-7Rα_7 VHH (VHH)
VHH: QVQLVESGGGLVQPGGSLRLSCAASGFTFSNYAMSWYRQAPGKERELVASISVFGGGTNYADSVKGRFTISRDNAKNTVYLQMNSLKPEDSAVYYCNKRRYDDYWGQGTQVTVSS
notes: as for B1
B7: IL-7Rα_1 VHH (VHH)
VHH: QVQLVESGGGLVQPGGSLRLSCAASGFTFSQRIMSWYRQAPGKERELVASISPFGDGTRYADSVKGRFTISRDNARNQLYLQMNTLKPEDTAVYYCNKRNLEISDDWGQGTQVTVSS
notes: as for B1
B8: IL-7Rα_14 VHH (VHH)
VHH: QVQLVESGGGLVQPGGSLRLSCAASGFTFSQRIMSWYRQAPGKERELVASVSPFGDGTRYADSVKGRFTISRDNAKSQLYLQMNNLKFEDTAVYYCNKRNLEISDAWGQGTQVTVSS
notes: as for B1
B9: IL-7Rα_5 VHH (VHH)
VHH: QVQLVESGGGLVQPGGSLRLSCAASGFTFSQRIMSWYRQAPGKEHELVASISPFGDGTRYADSVKGRFTISRDNARNQLYLQMNSLEFEDTAVYYCNKRNLDVSDDWGQGTQVTVSS
notes: as for B1
B10: IL-7Rα_4 VHH (VHH)
VHH: QVQLVESGGGLVQPGGSLRLSCTTSGFTFTTYAMKWVRQAPGKGLEWVAFISPAGGITDYADSVKGRFTISRDNAKETLYLRMDSLKPEDTAVYYCARGDSDTNNNRGQGTQVTVSS
notes: as for B1
B11: IL-7Rα_2 VHH (VHH)
VHH: QVQLVESGGGLVQPGGSLRLSCEVSGIRFSLRNMHWYRQASGRQREWVATITAGGVTGYRDSVKGRFTISRDNAKNTVDLQMNGLQLEDTAVYYCNHGDTAYWGQGTQVTVSS
notes: as for B1
B12: IL-7Rα_13 VHH (VHH)
VHH: QVQLVESGGGLVRPGGSLRLACAASGIRFSLRNMHWYRQASGRQREWVATITAGGVTGYRDSVKGRFTISRDNAKNTVDLQMNGLQLEDTAVYYCNHGDTAYWGQGTQVTVSS
notes: as for B1

These binders were tested against T1, extracellular domain (ECD) of human IL-7Rα fused to biotinylated Fc knob-into-hole (P1AI1009) (human, UniProt P0DOX5 223-448 = IgG part, biotinylated at C-terminal AviTag) (assay: ELISA, soluble VHH supernatants on neutravidin plates with biotinylated IL-7Rα-Fc versus biotinylated Fc, anti-His-HRP).
T1 construct: also called human IL-7Rα-Fc; human IL-7Rα antigen
Protocol: Round 3 and round 4 enrichment libraries were screened for target specificity vs Fc specificity by ELISA. Individual VHH clones were expressed in 1 ml E. coli cultures in a 96-well plate and supernatants containing soluble VHH were screened for specificity by ELISA. Supernatants were transferred to neutravidin 96-well plates coated with biotinylated Fc (P1AE6073) or target Fc-tagged biotinylated antigen (P1AI1009). Following incubation for 1 hour at 20° C., plates were washed 3 times with PBST and 3 times with PBS. HRP-conjugated anti-His antibody (Sigma, Cat. No: A7058) was added to wells at 1:2000 dilution and plates were incubated for 1 hour at 20° C. Plates were washed 3 times with PBST followed by 3 washes with PBS. Plates were developed by adding 1-Step Ultra TMB-ELISA substrate (Thermo Fisher Scientific, Cat. No: 34028) and reactions were quenched with sulfuric acid. Absorbance at 450 nm was measured using a Tecan infinite M1000 Pro and reference absorbance values were measured at 650 nm. Reference-subtracted absorbance values at 450 nm were represented as stacked bar charts for round 3 library 1 and library 2 (FIG. 40A and B, respectively) and round 4 library 1 and library 2 (FIG. 40C and D, respectively). […] 16 target-specific VHH were selected and subsequently cloned into bispecific heavy chain antibody formats.

Binding result, binds:
B1
B2
B3
B4
B5
B6
B7
B8
B9
B10
B11
B12
